Data from paper PMC7015813 (Nature structural & molecular biology, 2020).
Positions count from the first letter of the chain named. Names and notes keep the numbering of the source.

T1: WT core mouse RAG1 (aa 384-1008) (mouse, UniProt P15919 384-1008)
T1 sequence (looked up): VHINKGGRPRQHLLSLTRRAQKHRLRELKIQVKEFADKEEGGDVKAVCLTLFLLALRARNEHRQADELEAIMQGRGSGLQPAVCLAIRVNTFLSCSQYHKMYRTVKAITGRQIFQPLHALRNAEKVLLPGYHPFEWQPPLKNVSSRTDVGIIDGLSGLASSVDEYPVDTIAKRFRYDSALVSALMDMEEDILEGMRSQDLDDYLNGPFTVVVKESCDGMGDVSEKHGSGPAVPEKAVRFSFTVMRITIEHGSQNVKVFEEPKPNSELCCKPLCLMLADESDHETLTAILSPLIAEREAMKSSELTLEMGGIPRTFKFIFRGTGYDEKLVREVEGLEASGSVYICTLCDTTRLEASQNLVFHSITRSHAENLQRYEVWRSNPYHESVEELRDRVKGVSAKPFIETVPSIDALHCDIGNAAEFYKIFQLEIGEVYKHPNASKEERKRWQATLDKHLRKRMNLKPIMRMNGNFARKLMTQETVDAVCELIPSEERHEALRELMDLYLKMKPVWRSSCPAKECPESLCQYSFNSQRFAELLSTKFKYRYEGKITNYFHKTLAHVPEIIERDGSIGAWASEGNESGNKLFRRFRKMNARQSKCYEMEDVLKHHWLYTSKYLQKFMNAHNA

T2: WT core mouse RAG1 (aa 384-1008) (mouse), P15919
T2 chain: T1 sequence (looked up)

B1: mouse RAG2 (aa 1-520), degradation resistant T490A mutant (natural protein, UniProt P21784 1-520, looked up)
chain: MSLQMVTVGHNIALIQPGFSLMNFDGQVFFFGQKGWPKRSCPTGVFHFDIKQNHLKLKPAIFSKDSCYLPPLRYPATCSYKGSIDSDKHQYIIHGGKTPNNELSDKIYIMSVACKNNKKVTFRCTEKDLVGDVPEPRYGHSIDVVYSRGKSMGVLFGGRSYMPSTQRTTEKWNSVADCLPHVFLIDFEFGCATSYILPELQDGLSFHVSIARNDTVYILGGHSLASNIRPANLYRIRVDLPLGTPAVNCTVLPGGISVSSAILTQTNNDEFVIVGGYQLENQKRMVCSLVSLGDNTIEISEMETPDWTSDIKHSKIWFGSNMGNGTIFLGIPGDNKQAMSEAFYFYTLRCSEEDLSEDQKIVSNSQTSTEDPGDSTPFEDSEEFCFSAEATSFDGDDEFDTYNEDDEDDESVTGYWITCCPTCDVDINTWVPFYSTELNKPAMIYCSHGDGHWVHAQCMDLEERTLIHLSEGSNKYYCNEHVQIARALQAPKRNPPLQKPPMKSLHKKGSGKVLTPAKKS
B2: WT core mouse RAG2 (aa 1-359) (domain or fragment, UniProt P21784 1-359, looked up)
chain: MSLQMVTVGHNIALIQPGFSLMNFDGQVFFFGQKGWPKRSCPTGVFHFDIKQNHLKLKPAIFSKDSCYLPPLRYPATCSYKGSIDSDKHQYIIHGGKTPNNELSDKIYIMSVACKNNKKVTFRCTEKDLVGDVPEPRYGHSIDVVYSRGKSMGVLFGGRSYMPSTQRTTEKWNSVADCLPHVFLIDFEFGCATSYILPELQDGLSFHVSIARNDTVYILGGHSLASNIRPANLYRIRVDLPLGTPAVNCTVLPGGISVSSAILTQTNNDEFVIVGGYQLENQKRMVCSLVSLGDNTIEISEMETPDWTSDIKHSKIWFGSNMGNGTIFLGIPGDNKQAMSEAFYFYTLRCSEEDLSEDQ
B3: mouse RAG1 (aa 265-1040), catalytically inactive E962Q mutant (enzyme, UniProt P15919 265-1040, looked up)
chain: NCSKIHLSTKLLAVDFPAHFVKSISCQICEHILADPVETSCKHLFCRICILRCLKVMGSYCPSCRYPCFPTDLESPVKSFLNILNSLMVKCPAQDCNEEVSLEKYNHHVSSHKESKETLVHINKGGRPRQHLLSLTRRAQKHRLRELKIQVKEFADKEEGGDVKAVCLTLFLLALRARNEHRQADELEAIMQGRGSGLQPAVCLAIRVNTFLSCSQYHKMYRTVKAITGRQIFQPLHALRNAEKVLLPGYHPFEWQPPLKNVSSRTDVGIIDGLSGLASSVDEYPVDTIAKRFRYDSALVSALMDMEEDILEGMRSQDLDDYLNGPFTVVVKESCDGMGDVSEKHGSGPAVPEKAVRFSFTVMRITIEHGSQNVKVFEEPKPNSELCCKPLCLMLADESDHETLTAILSPLIAEREAMKSSELTLEMGGIPRTFKFIFRGTGYDEKLVREVEGLEASGSVYICTLCDTTRLEASQNLVFHSITRSHAENLQRYEVWRSNPYHESVEELRDRVKGVSAKPFIETVPSIDALHCDIGNAAEFYKIFQLEIGEVYKHPNASKEERKRWQATLDKHLRKRMNLKPIMRMNGNFARKLMTQETVDAVCELIPSEERHEALRELMDLYLKMKPVWRSSCPAKECPESLCQYSFNSQRFAELLSTKFKYRYEGKITNYFHKTLAHVPEIIERDGSIGAWASEGNQSGNKLFRRFRKMNARQSKCYEMEDVLKHHWLYTSKYLQKFMNAHNALKSSGFTMNSKETLGDPLGIEDSLESQDSMEF
B4: mouse RAG1 (aa 265-1040), wild type (enzyme, UniProt P15919 265-1040, looked up)
chain: B3 chain with Q698E
B5: WT core mouse RAG1 (aa 384-1008), P15919 384-1008 (enzyme)
chain: T1 sequence (looked up)

How the values were obtained:
[1] = target: B3; assay: cryo-EM structure
[2] = target: T1, WT core mouse RAG1 (aa 384-1008); assay: crystal structure
cryo-EM structure = target: the molecule itself; assay: cryo-EM structure
[3] = target: T2, WT core mouse RAG1 (aa 384-1008) …; assay: crystal structure; details: remark: other sources report otherwise

Binder: B1
binding result [1]: binds

Binder: B2
binding result [2]: binds

Binder: B3
binding result (cryo-EM structure): binds

Binder: B4
binding result (cryo-EM structure): binds

Binder: B5
stoichiometry N [3]: 2
